Biological target: T1, falcilysin E132Q single mutant (residues 59-1193) (Plasmodium falciparum, UniProt Q76NL8 59-1193, E132Q)
T1 sequence (looked up): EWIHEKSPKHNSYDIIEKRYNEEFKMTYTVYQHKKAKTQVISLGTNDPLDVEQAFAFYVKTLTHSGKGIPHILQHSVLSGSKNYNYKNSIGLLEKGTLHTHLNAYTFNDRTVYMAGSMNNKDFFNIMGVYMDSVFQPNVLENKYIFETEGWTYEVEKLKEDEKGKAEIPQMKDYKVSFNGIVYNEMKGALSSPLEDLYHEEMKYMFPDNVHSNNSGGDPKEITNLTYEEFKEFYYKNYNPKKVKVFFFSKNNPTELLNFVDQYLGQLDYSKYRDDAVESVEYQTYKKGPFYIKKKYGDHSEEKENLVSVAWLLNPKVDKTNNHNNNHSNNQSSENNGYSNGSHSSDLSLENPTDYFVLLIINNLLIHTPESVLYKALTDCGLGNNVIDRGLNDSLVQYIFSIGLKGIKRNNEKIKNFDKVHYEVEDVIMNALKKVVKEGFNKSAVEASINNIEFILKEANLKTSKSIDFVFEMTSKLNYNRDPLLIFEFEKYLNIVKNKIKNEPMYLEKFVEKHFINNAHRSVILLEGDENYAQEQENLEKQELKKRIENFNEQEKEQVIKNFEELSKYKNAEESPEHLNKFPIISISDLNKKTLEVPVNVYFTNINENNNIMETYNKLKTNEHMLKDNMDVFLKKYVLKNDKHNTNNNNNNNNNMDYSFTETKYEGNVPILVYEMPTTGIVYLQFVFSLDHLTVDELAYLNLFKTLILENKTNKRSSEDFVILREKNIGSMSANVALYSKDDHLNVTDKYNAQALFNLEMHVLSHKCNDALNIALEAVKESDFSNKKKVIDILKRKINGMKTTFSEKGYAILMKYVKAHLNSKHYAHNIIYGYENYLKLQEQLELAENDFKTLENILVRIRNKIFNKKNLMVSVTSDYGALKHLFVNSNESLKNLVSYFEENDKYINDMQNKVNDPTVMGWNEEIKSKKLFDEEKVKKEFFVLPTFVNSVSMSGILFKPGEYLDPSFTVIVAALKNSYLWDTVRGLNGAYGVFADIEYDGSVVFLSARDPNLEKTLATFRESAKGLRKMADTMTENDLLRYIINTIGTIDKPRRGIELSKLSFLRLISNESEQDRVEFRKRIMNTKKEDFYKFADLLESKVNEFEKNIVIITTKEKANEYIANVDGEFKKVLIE
Assay: ITC

Row | Binder | Kd [nM]
1 | VVYPWTQRFFESFGD [hemoglobin β chain peptide (residues V33 to D47)] | 499
2 | LSFPTTKTYFPHFD [hemoglobin α chain peptide (residues L34 to D47)] | 933
